± gives the uncertainty stated by the source.

The series can be described thus: amyloid nucleation score (Sup35N fusion, yeast selection) (log enrichment); library NNK2; higher = more nucleation; inactive = no reads after selection. Put shortly: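 The nucleation score is the log enrichment of output over input reads, calculated with DiMSum and centred on the mode score of non-aggregating sequences. Sequences with under 100 input reads were excluded. Reads came from Illumina sequencing of plasmid inserts from psi-negative yeast expressing Sup35N fused to peptides of 20 random codons, induced 24 hours with 100 μM copper sulfate and grown 7 days at 30°C without adenine and uracil.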
IGVIKGFYWHK gave an amyloid nucleation score of -0.343 ± 1.1.

RYLCSRVVMSYTCARTPETG displayed an amyloid nucleation score of 0.43 ± 0.35.

With LVANSSVHVNSSTSNNRLAV, the amyloid nucleation score is -0.917 ± 0.56.

SSIGMVDIVKTLMGK returned an amyloid nucleation score of -0.089 ± 0.61.

With PLDTYLWAYLLPWWSLCTSI, the amyloid nucleation score result was “inactive”.

Consider TRMDNAY, for which the amyloid nucleation score is -0.132 ± 0.65.

As to NKRHSGRFSVLQISA, the amyloid nucleation score was found to be 0.957 ± 0.15.

With CLAASSGVLYNEVQSYNTLV, the amyloid nucleation score result was “inactive”.

As for VTDWACGMILIYVLRKILVM, the amyloid nucleation score was determined as 0.461 ± 0.47.

In the case of VKWTVHYNAVAKRIRLMIVY, the amyloid nucleation score amounted to 0.437 ± 0.8.

On to GLSRVDPWVYQLPSMGSHDS, for which the amyloid nucleation score came to 0.706 ± 0.52.

On to LPYRSCLWFFFDIRNDVRVG, for which the amyloid nucleation score was 2.25 ± 0.12.

For the substance SFALGLQRNVNCKDD, the amyloid nucleation score was -0.06 ± 0.54.

Substance LVSADVCLGLMPSKSLGGRV displayed an amyloid nucleation score of 1.07 ± 0.54.

For YRCIMVATMWGPRVELGR, the amyloid nucleation score was found to be 0.522 ± 0.39.

Consider KGRVVSCIWGSCPGTSGR, for which the amyloid nucleation score is -0.235 ± 1.1.

For SGSIKHMNLVMV, the amyloid nucleation score is -0.027 ± 0.2.

For YWLPRCKLVFV, the amyloid nucleation score was 0.017 ± 0.25.

In turn, STVEVRGYLDAVMVGVVSNS had an amyloid nucleation score of 3.8 ± 0.052.

The substance NQFEGLKMRSTKLGAGGS registered an amyloid nucleation score of -0.293 ± 0.64.

The substance GLQFSATISYERPVWGGVLR returned an amyloid nucleation score of 4.64 ± 0.066.

TGLVVDCLAYRDCSVKQDRA: the amyloid nucleation score worked out at 0.582 ± 0.34.

Regarding VPQLSLQLVQRIFGFPSVIL, the amyloid nucleation score was -0.288 ± 0.41.

With SHEIVCTSVRSLTIFKQVQR, the amyloid nucleation score was 3.24 ± 0.059.

Turning to MVSLIPEMHFNVMLEKVACA, the amyloid nucleation score is 0.562 ± 0.81.

In the case of SQFSPNDLLLGSWKSDCPWR, the amyloid nucleation score is -0.917 ± 0.54.

Consider QGGFMIFDRITGGLRVMNGL, for which the amyloid nucleation score was 0.263 ± 0.23.

As for KYVALALERFMLAAHGTSLT, the amyloid nucleation score was -0.235 ± 0.33.

IVCPKSGNAVVYGLMTMNNK yielded an amyloid nucleation score of 0.329 ± 0.62.

Turning to GRFLLSLATVSGLCTSRLEI, the amyloid nucleation score is -0.169 ± 0.39.

On to RSGVESHRRKVPLVPMGVTV, for which the amyloid nucleation score stood at 1.16 ± 0.36.

In the case of DKSSMYSSTMRPL, the amyloid nucleation score is 0.06 ± 0.65.

As for SWLSQKSLESALRAIMNGKY, the amyloid nucleation score is 2.13 ± 0.16.

In turn, SRSVNCAVFNADSLCPKLWL yielded an amyloid nucleation score of 4.81 ± 0.11.

VNSEISDYLHDGDGSRVRSI showed an amyloid nucleation score of -0.025 ± 0.79.

Substance DFTFWCEYSSSPVKKYVIDC displayed an amyloid nucleation score of 0.736 ± 0.18.

Turning to IGRMGIQKWS, the amyloid nucleation score was 0.698 ± 0.47.

DNEMRYGDRSSVFI displayed an amyloid nucleation score of 1.32 ± 0.24.

Substance IMNRSSSG had an amyloid nucleation score of 1.03 ± 0.36.

In turn, CGSSMEYVGPLVYSAGAAEV returned an amyloid nucleation score of -0.097 ± 1.1.

In turn, HSGCCRYLLNNWLYSYMQFY had an amyloid nucleation score of 4.08 ± 0.05.

NVVTG gave an amyloid nucleation score of -0.11 ± 0.42.

For ARRIVMWVYECGTYCWRRTT, the amyloid nucleation score was found to be 0.216 ± 0.43.

Take NHYSSVMKVFCDRFTSAIGG: the amyloid nucleation score is -0.946 ± 0.63.

YISNYPNVRLALDPTTCAGM: the amyloid nucleation score was -0.452 ± 0.48.

Turning to CNMGLRYTSYLI, the amyloid nucleation score was -0.212 ± 0.34.

On to FIEVTSRNT, for which the amyloid nucleation score is -0.994 ± 0.42.

In turn, VVTNCAALVNWRFFYLCNSY displayed an amyloid nucleation score of 3.93 ± 0.054.

Take TWGFYAVTCLQLLPRFVKHV: the amyloid nucleation score is -0.374 ± 0.33.

In the case of NMDKRSNGFRKCMWLS, the amyloid nucleation score is -0.883 ± 1.1.

SLLLKVMSR had an amyloid nucleation score of -0.627 ± 0.79.

RLALWVKSSYVFIQESEELH had an amyloid nucleation score of 3.2 ± 0.1.

LRLLQVVGVCCSGTWVDGCW came in with an amyloid nucleation score of 6.074 ± 0.04.

As to ESAAER, the amyloid nucleation score is -0.186 ± 0.76.

Substance STNCFRAFTHYPMYIGCVVM had an amyloid nucleation score of -0.159 ± 0.8.

Substance TSFQVFINYVSL had an amyloid nucleation score of 7.605 ± 0.046.

Substance CIRMLSVIYHCPL returned an amyloid nucleation score of 4.85 ± 0.07.

For the substance HEKGIKVVQGGQVYGITVEV, the amyloid nucleation score was determined as 0.093 ± 0.39.

Regarding GTLPYDNRTTYAFYLRVCSL, the amyloid nucleation score entry was “inactive”.

The substance FPCSVRVTLTYLFMYEPVRP had an amyloid nucleation score of 0.076 ± 0.2.

Consider WGESHWVASFFKFVRGSWDG, for which the amyloid nucleation score was -0.112 ± 0.54.

SVVWCWCSEW registered an amyloid nucleation score of 0.602 ± 0.81.

DSNTSSDILGLSYLYGRTRL returned an amyloid nucleation score of 0.168 ± 0.37.

For the substance SLVTSIVQG, the amyloid nucleation score is -0.434 ± 0.64.

Consider YHHIV, for which the amyloid nucleation score result is “inactive”.

The substance FIRVLVWWYVCRLFPHCVAR yielded an amyloid nucleation score of 0.554 ± 0.81.

YVSSNWRNFRSVSQWWMLHV had an amyloid nucleation score of 1.57 ± 0.1.

In the case of STPLILVRCNSYL, the amyloid nucleation score was -0.456 ± 0.28.

For the substance YVAVYSCLSRGCTLS, the amyloid nucleation score was 9.186 ± 0.077.

Consider YLGWVVCFRHCLIGH, for which the amyloid nucleation score was 0.145 ± 0.56.

Substance GLTPSISSLRCIGSRFGKFS displayed an amyloid nucleation score of 0.86 ± 0.46.

On to GGSRTRSCQDRAHCSVGGM, for which the amyloid nucleation score amounted to 0.598 ± 0.39.

GALNISLDTLMVSRCYFHSP registered an amyloid nucleation score of 0.945 ± 0.31.

In turn, FLDPTVFSYLQVTCDIVDLH came in with an amyloid nucleation score of -0.113 ± 1.1.

MSRSSPMIHFETCWHASAGF: the amyloid nucleation score is 3.82 ± 0.044.

Regarding YGLALFTRI, the amyloid nucleation score was -0.347 ± 0.44.

As to LTISRSNLGARPF, the amyloid nucleation score was -0.053 ± 0.39.

Consider RHGGQAAGRVEHVTSGCQRV, for which the amyloid nucleation score is 1.54 ± 0.47.

The substance MNMRAGTEL came in with an amyloid nucleation score of 0.479 ± 0.54.

In the case of ILWKMTFKAPIAKEFPAKWL, the amyloid nucleation score amounted to 0.065 ± 0.56.

YWNEP returned an amyloid nucleation score of 0.15 ± 0.37.

Regarding CMVRLKPDFITALRLSLRGR, the amyloid nucleation score result is “inactive”.

In turn, MFIWPCYFHNIRVGQLFGFG returned an amyloid nucleation score of 0.091 ± 0.63.

In the case of SRSFASPRYELMLATRTHEK, the amyloid nucleation score was 0.966 ± 0.57.

RMSWVGSEHRLGVNSFNVLG: the amyloid nucleation score worked out at 0.201 ± 0.34.

In turn, YVNRVSCKVASRNCHHNGKS gave an amyloid nucleation score of -0.235 ± 1.1.

Regarding FYVLWQLVVYAMVMYWDTYS, the amyloid nucleation score result is “inactive”.

EALSLLSR returned an amyloid nucleation score of -0.22 ± 1.

Substance DLTCRTSLSRGWKVLASSNG showed an amyloid nucleation score of 0.413 ± 0.31.

In turn, CWFGCVPDLTTGLGASCGRD registered an amyloid nucleation score of 0.606 ± 0.2.

TKGFVTGVGGRSLIIVGCGA gave an amyloid nucleation score of 0.664 ± 0.51.

As for RWVWDGPLYMLFSCMCYIKR, the amyloid nucleation score was 6.484 ± 0.064.

The substance DYIDKPELLSVLGTRQMKCF showed an amyloid nucleation score of 0.241 ± 0.35.

As for CYRNAT, the amyloid nucleation score is 0.475 ± 0.2.

Take QVFAHIAVSYGLLFFLHWEC: the amyloid nucleation score is -0.331 ± 1.

As to EAWADGSIMYSYTRPDGDKV, the amyloid nucleation score came to 0.421 ± 0.24.

As to MWRAQFIYLRMQLVVACVGI, the amyloid nucleation score was determined as 0.394 ± 0.33.

On to LYLLM, for which the amyloid nucleation score is -0.358 ± 1.

Substance GMGQQEVPNWGMATGCGYEE returned an amyloid nucleation score of 0.081 ± 1.1.

FILVCWISIFGLFMIPGMWD displayed an amyloid nucleation score of -1.13 ± 0.64.

The substance LTMVWNKSFGEIHRLWVGNS registered an amyloid nucleation score of -1.58 ± 0.62.

Consider NYFLY, for which the amyloid nucleation score was 7.28 ± 0.086.

SPVLIAYQGMAKDWGLVING displayed an amyloid nucleation score of 0.139 ± 0.56.

On to LWVFLLAWSAQLYDWSMATR, for which the amyloid nucleation score is -0.12 ± 0.79.

Substance CHRLDWINYLCGSHKAIMIV returned an amyloid nucleation score of -0.472 ± 0.5.

The substance LDCNDYRDVCVSGFYVCIEG yielded an amyloid nucleation score of -0.597 ± 0.27.

As for KGWNMHSPMRALQHAETVGT, the amyloid nucleation score came out at 0.859 ± 0.3.

In the case of DTGNMVSEKPGGILSDMGRI, the amyloid nucleation score entry was “inactive”.

As for TNLQSVRYVAHTF, the amyloid nucleation score was 3.96 ± 0.068.

In turn, YSGVSTTSFISDKPYRSRRR registered an amyloid nucleation score of -1.95 ± 1.

With IFYYIDCCHITARYFQREGM, the amyloid nucleation score came out at 7.71 ± 0.081.

As for ESHTGYNIPVIRSHPPYNRS, the amyloid nucleation score was -0.869 ± 0.64.

The substance GLPSILVYL returned an amyloid nucleation score of -1.31 ± 0.78.

As to WHSVHYNLFCCF, the amyloid nucleation score turned out to be 8.689 ± 0.041.

SNIVSWVIEDGVRKC: the amyloid nucleation score is 4.5 ± 0.049.

SSCIWLVFKCSWFGF showed an amyloid nucleation score of 4.421 ± 0.029.

With FCSVTMHKKMN, the amyloid nucleation score was -0.195 ± 0.38.

SPSHGVRNP showed an amyloid nucleation score of 1.51 ± 0.34.

In the case of ANDSSNYEYVILMRPNVIEV, the amyloid nucleation score is -0.14 ± 0.49.

In the case of DDRIGSRVYVRVMNTKFFIK, the amyloid nucleation score was determined as 6.406 ± 0.045.

As for VNFFNLINRRGTPNRWFYAS, the amyloid nucleation score was determined as 0.201 ± 1.

Substance VLQRCRTAVKPYQHNNCLIM had an amyloid nucleation score of 2.26 ± 0.11.

For VPISHLNCYFFW, the amyloid nucleation score was 8.686 ± 0.084.

For CKLWECTLLVGWGNLLRVRG, the amyloid nucleation score was -0.276 ± 0.76.

In turn, MYKGA returned an amyloid nucleation score of 0.595 ± 0.62.

The substance FDLSREV displayed an amyloid nucleation score of -0.544 ± 0.29.

In turn, LSLFSYPLHAPFLTMVSWPY had an amyloid nucleation score of -0.78 ± 0.78.

IHESSSF yielded an amyloid nucleation score of -0.47 ± 1.1.

RELRQPNK: the amyloid nucleation score result is “inactive”.

In the case of FGILGCMYVNPNMNMIYWLW, the amyloid nucleation score was determined as 1.56 ± 0.24.

Substance PSWAELRVAYLLCGSGQPG had an amyloid nucleation score of 1.43 ± 0.19.

MDPSICSDSLRFGLYWISRR: the amyloid nucleation score is 3.93 ± 0.12.

For the substance KCLDSFDMSDMYSR, the amyloid nucleation score was -0.632 ± 1.1.

In turn, ARLAPRSLPCKWSPVAEKQR had an amyloid nucleation score of -0.098 ± 0.79.

As to FYQRLMSLTTMYLIQRHSL, the amyloid nucleation score is -0.038 ± 0.74.

In turn, NSKVFS showed an amyloid nucleation score of 0.011 ± 1.1.

Substance CYRDMALGGCNVNVQLFVEA yielded an amyloid nucleation score of -0.049 ± 0.54.

For the substance GFFLSNFSVFYKCIRSVVDT, the amyloid nucleation score was -1.81 ± 0.62.

As for SVMPMRYLVCVILLGRRSRT, the amyloid nucleation score stood at 0.765 ± 0.16.

NWLLN registered an amyloid nucleation score of -0.492 ± 0.76.

The values are drawn from the supplement of paper PMC12042874.
